T1: angiopoietin-2 (UniProt O15123 68-496, limits assumed)
T1 sequence (looked up): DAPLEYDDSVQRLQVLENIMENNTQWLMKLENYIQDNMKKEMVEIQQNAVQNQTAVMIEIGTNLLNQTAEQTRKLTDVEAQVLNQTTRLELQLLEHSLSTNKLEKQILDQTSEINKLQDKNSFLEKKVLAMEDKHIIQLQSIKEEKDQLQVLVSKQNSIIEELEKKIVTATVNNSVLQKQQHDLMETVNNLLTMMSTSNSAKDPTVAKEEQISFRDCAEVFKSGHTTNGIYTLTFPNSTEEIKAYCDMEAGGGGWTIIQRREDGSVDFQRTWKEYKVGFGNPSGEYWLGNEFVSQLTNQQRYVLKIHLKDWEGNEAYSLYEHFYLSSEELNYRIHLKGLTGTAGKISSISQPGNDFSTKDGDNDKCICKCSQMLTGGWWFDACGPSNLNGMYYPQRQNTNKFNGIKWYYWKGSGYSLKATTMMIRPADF

T2: VEGF (UniProt P15692-9 27-147, limits assumed)
T2 sequence (looked up): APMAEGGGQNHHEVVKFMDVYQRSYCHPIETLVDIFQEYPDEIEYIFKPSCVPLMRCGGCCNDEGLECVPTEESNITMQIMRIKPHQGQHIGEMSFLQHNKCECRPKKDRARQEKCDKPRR


Target: T1, angiopoietin-2
Assay: cell-based or functional assay

Row | EC50, kinase receptor activation assay [nM] | Binder
1 | 13 | Ophthabody variant IV (bispecific antibody) chain 1: not shown chain 2: EVQLVESGGGLVQPGGSLRLSCAASGYDFTHYGMNWVRQAPGKGLEWVGWINTYTGEPTYAADFKRRFTFSLDTSKSTAYLQMNSLRAEDTAVYYCAKYPYYYGTSHWYFDVWGQGTLVTVSSGGGGSPREPQVYTLPPCRDELTKNQVSLWCLVKGFYPSDIAVEWESNGQPENNYKTTPPVLDSDGSFFLYSKLTVDKSRWQQGNVFSCSVMHEALHNHYTQKSLSLSGGGGSDIQLTQSPSSLSASVGDRVTITCSASQDISNYLNWYQQKPGKAPKVLIYFTSSLHSGVPSRFSGSGSGTDFTLTISSLQPEDFATYYCQQYSTVPWTFGQGTKVEIKGS
2 | 21 | Ophthabody variant I (bispecific antibody) chain 1: not shown chain 2: EVQLVESGGGLVQPGGSLRLSCAASGYDFTHYGMNWVRQAPGKGLEWVGWINTYTGEPTYAADFKRRFTFSLDTSKSTAYLQMNSLRAEDTAVYYCAKYPYYYGTSHWYFDVWGQGTLVTVSSGGGPREPQVYTLPPCRDELTKNQVSLWCLVKGFYPSDIAVEWESNGQPENNYKTTPPVLDSDGSFFLYSKLTVDKSRWQQGNVFSCSVMHEALHNHYTQKSLSLSGGGDIQLTQSPSSLSASVGDRVTITCSASQDISNYLNWYQQKPGKAPKVLIYFTSSLHSGVPSRFSGSGSGTDFTLTISSLQPEDFATYYCQQYSTVPWTFGQGTKVEIKAS
3 | 14 | Ophthabody variant V (bispecific antibody) chain 1: not shown chain 2: EVQLVESGGGLVQPGGSLRLSCAASGYDFTHYGMNWVRQAPGKGLEWVGWINTYTGEPTYAADFKRRFTFSLDTSKSTAYLQMNSLRAEDTAVYYCAKYPYYYGTSHWYFDVWGQGTLVTVSSPGGPREPQVYTLPPCRDELTKNQVSLWCLVKGFYPSDIAVEWESNGQPENNYKTTPPVLDSDGSFFLYSKLTVDKSRWQQGNVFSCSVMHEALHNHYTQKSLSLSGPGDIQLTQSPSSLSASVGDRVTITCSASQDISNYLNWYQQKPGKAPKVLIYFTSSLHSGVPSRFSGSGSGTDFTLTISSLQPEDFATYYCQQYSTVPWTFGQGTKVEIKGS
4 | 18 | Ophthabody variant VI (bispecific antibody) chain 1: not shown chain 2: EVQLVESGGGLVQPGGSLRLSCAASGYDFTHYGMNWVRQAPGKGLEWVGWINTYTGEPTYAADFKRRFTFSLDTSKSTAYLQMNSLRAEDTAVYYCAKYPYYYGTSHWYFDVWGQGTLVTVSSGPPSREPQVYTLPPCRDELTKNQVSLWCLVKGFYPSDIAVEWESNGQPENNYKTTPPVLDSDGSFFLYSKLTVDKSRWQQGNVFSCSVMHEALHNHYTQKSLSLSPPGDIQLTQSPSSLSASVGDRVTITCSASQDISNYLNWYQQKPGKAPKVLIYFTSSLHSGVPSRFSGSGSGTDFTLTISSLQPEDFATYYCQQYSTVPWTFGQGTKVEIKGS

The next lines start with the binder.

Row | Binder | EC50, kinase receptor activation assay [nM]
5 | Ophthabody variant III (bispecific antibody) chain 1: not shown chain 2: EVQLVESGGGLVQPGGSLRLSCAASGYDFTHYGMNWVRQAPGKGLEWVGWINTYTGEPTYAADFKRRFTFSLDTSKSTAYLQMNSLRAEDTAVYYCAKYPYYYGTSHWYFDVWGQGTLVTVSSGGGGSPREPQVYTLPPCRDELTKNQVSLWCLVKGFYPSDIAVEWESNGQPENNYKTTPPVLDSDGSFFLYSKLTVDKSRWQQGNVFSCSVMHEALHNHYTQKSLSLSGGGGSDIQLTQSPSSLSASVGDRVTITCSASQDISNYLNWYQQKPGKAPKVLIYFTSSLHSGVPSRFSGSGSGTDFTLTISSLQPEDFATYYCQQYSTVPWTFGQGTKVEIKAS | 19
6 | Ophthabody variant II (bispecific antibody) chain 1: not shown chain 2: EVQLVESGGGLVQPGGSLRLSCAASGYDFTHYGMNWVRQAPGKGLEWVGWINTYTGEPTYAADFKRRFTFSLDTSKSTAYLQMNSLRAEDTAVYYCAKYPYYYGTSHWYFDVWGQGTLVTVSSGGGPREPQVYTLPPCRDELTKNQVSLWCLVKGFYPSDIAVEWESNGQPENNYKTTPPVLDSDGSFFLYSKLTVDKSRWQQGNVFSCSVMHEALHNHYTQKSLSLSGGGDIQLTQSPSSLSASVGDRVTITCSASQDISNYLNWYQQKPGKAPKVLIYFTSSLHSGVPSRFSGSGSGTDFTLTISSLQPEDFATYYCQQYSTVPWTFGQGTKVEIKGS | 18
7 | Ophthabody variant VII (bispecific antibody) chain 1: not shown chain 2: EVQLVESGGGLVQPGGSLRLSCAASGYDFTHYGMNWVRQAPGKGLEWVGWINTYTGEPTYAADFKRRFTFSLDTSKSTAYLQMNCLRAEDTAVYYCAKYPYYYGTSHWYFDVWGQGTLVTVSSGGGPREPQVYTLPPCRDELTKNQVSLWCLVKGFYPSDIAVEWESNGQPENNYKTTPPVLDSDGSFFLYSKLTVDKSRWQQGNVFSCSVMHEALCNHYTQKSLSLSGGGDIQLTQSPSSLSASVGDRVTITCSASQDISNYLNWYQQKPGKAPKVLIYFTSSLHSGVPSRFSGSGSGTDFTLTISSLQPEDFATYYCQQYSTVPWTFGQGTKVEIKGS | 23

Target: T2, VEGF
Assay: cell-based or functional assay

Row | EC50, luciferase assay (reporter gene assay) [nM] | Binder
8 | 2.1 | Ophthabody variant VII (bispecific antibody) chain 1: not shown chain 2: EVQLVESGGGLVQPGGSLRLSCAASGYDFTHYGMNWVRQAPGKGLEWVGWINTYTGEPTYAADFKRRFTFSLDTSKSTAYLQMNCLRAEDTAVYYCAKYPYYYGTSHWYFDVWGQGTLVTVSSGGGPREPQVYTLPPCRDELTKNQVSLWCLVKGFYPSDIAVEWESNGQPENNYKTTPPVLDSDGSFFLYSKLTVDKSRWQQGNVFSCSVMHEALCNHYTQKSLSLSGGGDIQLTQSPSSLSASVGDRVTITCSASQDISNYLNWYQQKPGKAPKVLIYFTSSLHSGVPSRFSGSGSGTDFTLTISSLQPEDFATYYCQQYSTVPWTFGQGTKVEIKGS
